Literature values, collected in article PMC6447450.

Biological target: Mcl-1 (Homo sapiens) (UniProt Q07820)
Sequence (Q07820 whole entry): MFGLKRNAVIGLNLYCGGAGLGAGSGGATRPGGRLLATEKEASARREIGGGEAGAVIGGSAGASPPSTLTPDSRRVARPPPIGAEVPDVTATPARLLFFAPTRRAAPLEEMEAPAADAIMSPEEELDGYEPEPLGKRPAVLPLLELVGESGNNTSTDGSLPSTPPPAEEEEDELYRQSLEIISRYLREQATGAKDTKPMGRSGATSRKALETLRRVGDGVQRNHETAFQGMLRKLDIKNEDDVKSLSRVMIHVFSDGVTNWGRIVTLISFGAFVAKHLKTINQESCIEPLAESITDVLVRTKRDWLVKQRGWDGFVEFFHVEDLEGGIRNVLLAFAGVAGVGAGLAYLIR

Sequence of native BH3 peptide (BIM, 2PQK) BH3 (O43521 143-165): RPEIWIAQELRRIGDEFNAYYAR

native BH3 peptide (BIM, 2PQK) BH3 (from UniProt O43521)
Kd: 1 nM
